Results as given in patent publication US20160158359A1 (JUNO THERAPEUTICS, published 2016).
Ends that are not written are not given here.

Experiments:
[1] = target: T1, HLA-A*03:01 recombinant MHC class I molecule (human); experiment: REVEAL MHC-peptide complex stabilisation assay, recombinant HLA-A*03:01
T1 construct: Recombinant MHC molecule incubated with synthetic peptide
Protocol: (§1) Specifically, assessment was of a series of overlapping 9-mer peptides derived from the sequence […] (set forth in SEQ ID NO: 7), which contains a portion of the CD28 transmembrane domain and 4-1BB costimulatory domain spanning the junction between the domains (bond joining the two amino acids noted in underline). In addition, a series of overlapping 9-mer peptides of each of a number of different variants of this portion also were assessed, each variant containing a mutation or mutations in this region as described in Example 2.
(§2) The various 9-mer overlapping peptides were synthesized and their purity tested by MALDI-TOF Mass Spectrometry.

[2] = target: T2, recombinant HLA-A*02:01 MHC class I molecule (human); experiment: REVEAL MHC-peptide binding assay, stabilisation of ternary complex with recombinant MHC
T2 construct: Recombinant MHC molecule incubated with each synthetic peptide; the assay measures how far the peptide stabilises the ternary MHC-peptide complex; also called HLA-A2:01
Protocol: as §1, §2

[3] = target: T3, recombinant HLA-A*03:01 MHC class I molecule (human); experiment: as above
T3 construct: Recombinant MHC molecule incubated with each synthetic peptide; the assay measures how far the peptide stabilises the ternary MHC-peptide complex
Protocol: as §1, §2

[4] = target: T4, HLA-A*11:01 recombinant MHC class I molecule (human); experiment: REVEAL MHC-peptide binding assay, stabilisation of ternary MHC-peptide complex, recombinant HLA
T4 construct: Recombinant MHC molecule of a bought assay service
Protocol: as §1, §2

[5] = target: T5, HLA-B*08:01 recombinant MHC class I molecule (human); experiment: as above
T5 construct: Recombinant MHC molecule of a bought assay service
Protocol: as §1, §2

[6] = target: T6, HLA-B*08:01 (recombinant MHC class I molecule) (human); experiment: REVEAL MHC-peptide complex stabilisation assay, recombinant HLA-B*08:01
T6 construct: Recombinant MHC molecule of the ProImmune REVEAL assay; the test peptide is the third part of the ternary complex
Protocol: as §1, §2

In Vitro Score [2] | In Vitro Score [3] | In Vitro Score [4] | In Vitro Score [5] | Binder | further results
– | – | – | – | IFWVQRGSK | In Vitro Score [1]: 0.3 % of positive control peptide
1.4 score, % of positive control peptide (=100) | – | – | – | AFIIFWVRR (Variant 9-mer of the CD28-4-1BB junction region) [AFIIFWVRR synthetic 9-mer peptide (overlapping reference peptide 2, K29R)] | –
1.2 score, % of positive control peptide (=100) | 0.7 score, % of positive control peptide (=100) | – | – | WVQRGNKKS (not fully specified, Variant 9-mer of the CD28-4-1BB junction region) [WVQRGNKKS synthetic 9-mer peptide (overlapping reference peptide 7, K29Q/L35S)] | –
1.9 score, % of positive control peptide (=100) | 1.2 score, % of positive control peptide (=100) | – | – | WVQRGNKKA (not fully specified, Variant 9-mer of the CD28-4-1BB junction region) [WVQRGNKKA synthetic 9-mer peptide (overlapping reference peptide 7, K29Q/L35A)] | –
– | – | 3.1 % of positive control peptide (set at 100%) | 3.1 % of positive control peptide (set at 100%) | WVKRGRKKA (Synthetic 9-mer) | –
4.5 score, % of positive control peptide (=100) | 0.9 score, % of positive control peptide (=100) | – | – | WVKRGRKKA (Variant 9-mer of the CD28 transmembrane / 4-1BB costimulatory junction region of a CAR) [WVKRGRKKA synthetic 9-mer peptide (overlapping reference peptide 7, L35A)] | –
– | – | – | – | FWVKRGLKK (synthetic 9-mer; the entry already carries the change; also called R32L) [FWVKRGLKK (SEQ ID NO: 63)] | In Vitro Score [6]: 6.3 % of positive control peptide
– | – | 1.5 % of positive control peptide (set at 100%) | 0.3 % of positive control peptide (set at 100%) | AFIIFWVRR (Synthetic 9-mer) | –
– | – | 5 % of positive control peptide (set at 100%) | 0 % of positive control peptide (set at 100%) | WVQRGNKKS (not fully specified, Synthetic 9-mer; also called K29Q/L35S) | –
– | – | 0.8 % of positive control peptide (set at 100%) | 0.7 % of positive control peptide (set at 100%) | WVQRGNKKA (not fully specified, Synthetic 9-mer; also called K29Q/L35A) | –
